Results reported in paper PMC7181641, “Aspartate aminotransferase Rv3722c governs aspartate-dependent nitrogen metabolism in Mycobacterium tuberculosis” (Nature Communications, 2020).

Target: the molecule itself
Assay: crystal structure; Rv3722c (~40 mg/mL) co-crystallised with 5 mM L-glutamic acid or 10 mM L-kynurenine, sitting drop vapor diffusion at 17 °C

B1: Rv3722c (aspartate aminotransferase of Mycobacterium tuberculosis) (enzyme)
chain: SFDSLSPQELAALHARHQQDYAALQGMKLALDLTRGKPSAEQLDLSNQLLSLPGDDYRDPEGTDTRNYGGQHGLPGLRAIFAELLGIAVPNLIAGNNSSLELMHDIVAFSMLYGGVDSPRPWIQEQDGIKFLCPVPGYDRHFAITETMGIEMIPIPMLQDGPDVDLIEELVAVDPAIKGMWTVPVFGNPSGVTYSWETVRRLVQMRTAAPDFRLFWDNAYAVHTLTLDFPRQVDVLGLAAKAGNPNRPYVFASTSKITFAGGGVSFFGGSLGNIAWYLQYAGKKSIGPDKVNQLRHLRFFGDADGVRLHMLRHQQILAPKFALVAEVLDQRLSESKIASWTEPKGGYFISLDVLPGTARRTVALAKDVGIAVTEAGASFPYRKDPDDKNIRIAPSFPSVPDLRNAVDGLATCALLAATETLLNQGLASSAPNVR
notes: also called AspAT
binding result: binds
